± gives the uncertainty stated by the source.
B1: RUN and FYVE domain-containing protein 1, residues 639 to 698; numbered along this chain, Q96T51 (parent)
chain: WLKDDEATHCRQCEKEFSISRRKHHCRNCGHIFCNTCSSNELALPSYPKPVRVCDSCHTL

Variants of: B1
Assay: abundance fitness (aPCA) (normalised: wild type 0, dead -1); higher = more abundant; growth selection in yeast, the domain comes from the species named
Settings: Homo sapiens

Variant	abundance fitness
S39P	-0.251 ± 0.061
S39Q	0.091 ± 0.051
S39W	-0.657 ± 0.079
S39D	0.128 ± 0.07
P50Y	-0.219 ± 0.12
P50C	-0.128 ± 0.08
P50A	0.05 ± 0.056
P50T	-0.233 ± 0.065
P50H	-0.347 ± 0.092
P50L	-0.085 ± 0.043
P50E	-0.078 ± 0.081
P50V	-0.074 ± 0.047
S56G	0.3 ± 0.049
S56I	0.136 ± 0.073
S56K	0.232 ± 0.063
S56W	0.033 ± 0.061
C29F	-0.871 ± 0.098
C29T	-0.818 ± 0.1
C29S	-1.01 ± 0.1
C29D	-0.709 ± 0.11
C29Y	-0.852 ± 0.097
C57F	-0.794 ± 0.13
C57I	-0.88 ± 0.12
C57V	-0.665 ± 0.05

Variant	abundance fitness
K3F	-1.14 ± 0.16
K3C	-1.03 ± 0.12
K3P	-0.906 ± 0.11
K3V	-0.687 ± 0.06
K3L	-0.607 ± 0.061
K3A	-0.602 ± 0.066
K3E	-0.475 ± 0.061
N40M	-0.021 ± 0.047
N40C	-0.933 ± 0.14
N40T	-0.08 ± 0.046
N40W	-0.85 ± 0.078
N40E	-0.172 ± 0.042
A7R	-0.031 ± 0.031
A7Y	-0.092 ± 0.048
A7P	-0.114 ± 0.053
A7W	-0.154 ± 0.041
A7H	-0.176 ± 0.07
A7I	-0.008 ± 0.05
A7F	-0.028 ± 0.046
A7L	-0.234 ± 0.038
A7K	-0.384 ± 0.09
E14H	-0.127 ± 0.081
E14L	-0.377 ± 0.044
E14N	-0.459 ± 0.092

Variant	abundance fitness
E14F	-0.204 ± 0.05
L42Y	-0.151 ± 0.07
L42D	0.184 ± 0.057
L42I	0.214 ± 0.08
L42H	0.118 ± 0.083
L42V	0.092 ± 0.047
P48Y	-0.582 ± 0.079
P48W	-0.484 ± 0.061
P48I	-0.419 ± 0.059
P48N	-0.324 ± 0.074
P48M	-0.309 ± 0.07
G30C	-0.453 ± 0.075
G30T	-0.77 ± 0.072
G30H	-0.428 ± 0.11
G30Q	-0.326 ± 0.055
G30R	-0.428 ± 0.039
G30D	-0.414 ± 0.099
R11T	0.044 ± 0.052
R11D	0.057 ± 0.066
R11Q	0.05 ± 0.048
R11Y	0.121 ± 0.042
R11W	0.224 ± 0.056
R11N	-0.093 ± 0.12
R11E	0.079 ± 0.038

Variant	abundance fitness
R11G	0.127 ± 0.035
R11K	0.229 ± 0.053
R11S	0.203 ± 0.04
R11V	-0.155 ± 0.04
Q12W	-0.69 ± 0.078
Q12T	-0.565 ± 0.051
Q12P	-1.17 ± 0.13
Q12C	0.039 ± 0.052
C13S	-0.899 ± 0.081
C13P	-0.984 ± 0.12
C13V	-0.951 ± 0.059
C13F	-0.707 ± 0.12
C13D	-0.874 ± 0.13
I32P	0.109 ± 0.053
I32A	-0.1 ± 0.14
I32K	0.134 ± 0.048
I32S	0.013 ± 0.043
I32V	0.04 ± 0.045
K15A	-0.527 ± 0.053
K15R	-0.053 ± 0.029
K15S	-0.098 ± 0.034
K15P	-0.999 ± 0.095
K15I	-0.143 ± 0.062
K15H	-0.074 ± 0.056

Variant	abundance fitness
R21L	-0.195 ± 0.03
R21W	-1.06 ± 0.13
R21P	-0.503 ± 0.074
R21H	-0.434 ± 0.079
H31Q	-0.019 ± 0.056
H31W	-0.017 ± 0.047
H31D	-0.126 ± 0.051
H31K	-0.143 ± 0.062
S20C	-0.369 ± 0.059
S20L	-0.147 ± 0.035
S20E	0.197 ± 0.037
S20W	0.005 ± 0.038
K23Q	-0.261 ± 0.055
K23S	-0.189 ± 0.041
K23P	-0.494 ± 0.057
K23R	-0.069 ± 0.036
K23Y	-0.575 ± 0.095
K23T	-0.204 ± 0.049
K23W	-0.243 ± 0.043
K23D	-0.315 ± 0.081
K23L	-0.433 ± 0.039
K23V	-0.257 ± 0.037
T8S	-0.016 ± 0.038
T8R	-0.009 ± 0.031

Variant	abundance fitness
T8P	-0.187 ± 0.063
T8E	-0.085 ± 0.057
T8L	-0.009 ± 0.032
T8G	-0.062 ± 0.036
T8V	-0.269 ± 0.046
T8D	-0.087 ± 0.056
C26T	-0.832 ± 0.09
C26S	-0.636 ± 0.065
C26G	-0.709 ± 0.072
C26Y	-0.77 ± 0.13
C26K	-0.677 ± 0.12
S18M	-0.23 ± 0.054
S18V	-0.247 ± 0.033
S18L	-0.423 ± 0.042
S18Y	-0.501 ± 0.093
S18D	0.06 ± 0.055
S18T	0.05 ± 0.047
I19N	-0.001 ± 0.052
I19S	-0.048 ± 0.035
I19Q	0.094 ± 0.047
I19M	-0.006 ± 0.061
I19F	-0.136 ± 0.046
I19D	-0.014 ± 0.058
K49N	0.012 ± 0.09

Variant	abundance fitness
K49S	-0.09 ± 0.042
K49M	-0.298 ± 0.069
K49W	-0.327 ± 0.057
K49P	-0.72 ± 0.15
K49G	-0.057 ± 0.055
K49T	-0.212 ± 0.065
K49H	-0.11 ± 0.28
K49C	-0.133 ± 0.085
K49D	-0.001 ± 0.1
D5S	-0.209 ± 0.039
D5T	-0.178 ± 0.058
D5M	0.058 ± 0.044
N28A	-0.046 ± 0.037
N28T	-0.306 ± 0.059
N28P	-0.244 ± 0.069
N28D	-0.19 ± 0.08
N28G	-0.1 ± 0.044
N28R	-0.176 ± 0.034
N28C	0.058 ± 0.09
N28M	-0.252 ± 0.05
N28H	0.05 ± 0.064
E41C	-0.11 ± 0.065
E41H	-0.195 ± 0.056

From the Human Domainome abundance scans (Beltran et al. 2025)
